Four proteins from US20100015650 can be followed below.

This series has as its target T1, BRB1 tyrosine kinase substrate peptide.
T1 chain: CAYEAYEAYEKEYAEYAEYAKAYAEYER

B1: DDR2 (protein)
chain: RQFWQKMLEKASRRMLDDEMTVSLSLPSDSSMFNNNRSSSPSEQGSNSTYDRIFPLRPDYQEPSRLIRKLPEFAPGEEESGCSGVVKPVQPSGPEGVPHYAEADIVNLQGVTGGNTYSVPAVTMDLLSGKDVAVEEFPRKLLTFKEKLGEGQFGEVHLCEVEGMEKFKDKDFALDVSANQPVLVAVKMLRADANKNARNDFLKEIKIMSRLKDPNIIHLLAVCITDDPLCMITEYMENGDLNQFLSRHEPPNSSSSDVRTVSYTNLKFMATQIASGMKYLSSLNFVHRDLATRNCLVGKNYTIKIADFGMSRNLYSGDYYRIQGRAVLPIRWMSWESILLGKFTTASDVWAFGVTLWETFTFCQEQPYSQLSDEQVIENTGEFFRDQGRQTYLPQPAICPDSVYKLMLSCWRRDTKNRPSFQEIHLLLLQQGDE
As to B1, the Signal to Noise ratio with BRB1 Peptide (TR-FRET kinase assay; kinase 0.5 nM) came out at 1.

B2: AXL (protein)
chain: HRRKKETRYGEVFEPTVERGELVVRYRVRKSYSRRTTEATLNSLGISEELKEKLRDVMVDRHKVALGKTLGEGEFGAVMEGQLNQDDSILKVAVKTMKIAICTRSELEDFLSEAVCMKEFDHPNVMRLIGVCFQGSERESFPAPVVILPFMKHGDLHSFLLYSRLGDQPVYLPTQMLVKFMADIASGMEYLSTKRFIHRDLAARNCMLNENMSVCVADFGLSKKIYNGDYYRQGRIAKMPVKWIAIESLADRVYTSKSDVWSFGVTMWEIATRGQTPYPGVENSEIYDYLRQGNRLKQPADCLDGLYALMSRCWELNPQDRPSFTELREDLENTLKALPPAQEPDEILYVNMDEGGGYPEPPGAAGGADPPTQPDPKDSCSCLTAAEVHPAGRYVLCPSTTPSPAQPADRGSPAAPGQEDGA
For the protein B2, the Signal to Noise ratio with BRB1 Peptide (TR-FRET kinase assay; kinase 4 nM) stood at 1.8.

B3: DDR1 (protein)
chain: RRLLSKAERRVLEEELTVHLSVPGDTILINNRPGPREPPPYQEPRPRGNPPHSAPCVPNGSALLLSNPAYRLLLATYARPPRGPGPPTPAWAKPTNTQAYSGDYMEPEKPGAPLLPPPPQNSVPHYAEADIVTLQGVTGGNTYAVPALPPGAVGDGPPRVDFPRSRLRFKEKLGEGQFGEVHLCEVDSPQDLVSLDFPLNVRKGHPLLVAVKILRPDATKNARNDFLKEVKIMSRLKDPNIIRLLGVCVQDDPLCMITDYMENGDLNQFLSAHQLEDKAAEGAPGDGQAAQGPTISYPMLLHVAAQIASGMRYLATLNFVHRDLATRNCLVGENFTIKIADFGMSRNLYAGDYYRVQGRAVLPIRWMAWECILMGKFTTASDVWAFGVTLWEVLMLCRAQPFGQLTDEQVIENAGEFFRDQGRQVYLSRPPACPQGLYELMLRCWSRESEQRPPFSQLHRFLAEDALNTV
On to B3, for which the Signal to Noise ratio with BRB1 Peptide (TR-FRET kinase assay; kinase 0.5 nM) came out at 1.

B4: ALK (protein)
chain: VYRRKHQELQAMQMELQSPEYKLSKLRTSTIMTDYNPNYCFAGKTSSISDLKEVPRKNITLIRGLGHGAFGEVYEGQVSGMPNDPSPLQVAVKTLPEVCSEQDELDFLMEALIISKFNHQNIVRCIGVSLQSLPRFILLELMAGGDLKSFLRETRPRPSQPSSLAMLDLLHVARDIACGCQYLEENHFIHRDIAARNCLLTCPGPGRVAKIGDFGMARDIYRASYYRKGGCAMLPVKWMPPEAFMEGIFTSKTDTWSFGVLLWEIFSLGYMPYPSKSNQEVLEFVTSGGRMDPPKNCPGPVYRIMTQCWQHQPEDRPNFAIILERIEYCTQDPDVINTALPIEYGPLVEEEEKVPVRPKDPEGVPPLLVSQQAKREEERSPAAPPPLPTTSSGKAAKKPTAAEISVRVPRGPAVEGGHVNMAFSQSNPPSELHKVHGSRNKPTSLWNPTYGSWFTEKPTKKNNPIAKKEPHDRGNLGLEGSCTVPPNVATGRLPGASLLLEPSSLTANMKEVPLFRLRHFPCGNVNYGYQQQGLPLEAATAPGAGHYEDTILKSKNSMNQPGP
In the case of B4, the Signal to Noise ratio with BRB1 Peptide (TR-FRET kinase assay; kinase 4 nM) turned out to be 8.8.
